# Experimental data taken from patent publication US20040265808A1, “Genes involved in osteogenesis, and methods of use” (priority 2001, published 2004).
# B1: 68 (nucleic acid, listed as Mus musculus)
# chain: CGATCGATATGGTCACCCACAGCAAGTTTCCCGCCGCCGGGATGAGCCGCCCCCTGGACACCAGCCTGCGCCTCAAGACCTTCAGCTCCAAAAGCGAGTACCAGCTGGTGGTGAACGCCGTGCGCAAGCTGCAGGAGAGCGGATTCTACTGGAGCGCCGTGACCGGCGGCGAGGCGAACCTGCTGCTCAGCGCCGAGCCCGCGGGCACCTTTCTTATCCGCGACAGCTCGGACCAGCGCCACTTCTTCACGTTGAGCGTCAAGACCCAGTCGGGGACCAAGAACCTACGCATCCAGTGTGAGGGGGGCAGCTTTTCGCTGCAGAGTGACCCCCGAAGCACGCAGCCAGTTCCCCGCTTCGACTGTGTACTCAAGCTGGTGCACCACTACATGCCGCCTCCAGGGACCCCCTCCTTTTCTTTGCCACCCACGGAACCCTCGTCCGAAGTTCCGGAGCAGCCACCTGCCCAGGCACTCCCCGGGAGTACCCCCAAGAGAGCTTACTACATCTATTCTGGGGGCGAGAAGATTCCGCTGGTACTGAGCCGACCTCTCTCCTCCAACGTGGCCACCCTCCAGCATCTTTGTCGGAAGACTGTCAACGGCCACCTGGACTCCTATGAGAAAGTGACCCAGCTGCCTGGACCCATTCGGGAGTTCCTGGATCAGTATGATGCTCCACTTGCGGCCGCTT
# Experiments:
# C3H10T1/2 cells = experiment: Transient over-expression of candidate genes, cooperation with BMP2 by measurement of alkaline phosphatase; type: cell-based, mouse; design: key: +: positive or negative cooperation with BMP2; −: positive or negative cooperation with BMP2; conditions: alkaline phosphatase
# Protocol: (§1) Mouse cell lines representing different stages of osteoblastic differentiation, C2C12, C2H10T1/2, ST2 and MC3T3-E1, were grown in the presence of agents capable of the induction of osteoblastic differentiation in vitro such as BMP2 and Sonic Hedgehog or in the presence of TGF beta (negative control) or with serum alone. Primary cells derived from mouse calvaria were also cultured for 0, 2, 7 14 and 21 days and RNA prepared for each time point. For example, C3H10T ½ and C2C12 can be obtained from the ATCC (Manassas, Va., USA) under the collection numbers CCL-226 and CRL-1772, respectively.
# (§2) The candidates genes are cloned in expression vectors and their ability to express a protein of the expected size verified by COS cells transient transfection. The genes are then transfected in C3H10T1/2 cells and/or C2C12 cells (transient over-expression) and positive or negative cooperation with BMP2 is evaluated by the measurement of alkaline phosphatase (enzymatic assay and TaqMan) at 48 hours. Controls of positive cooperation, recombinant Sonic Hedgehog, or negative cooperation, recombinant Noggin, are included in each test.
# C2C12 cells = experiment: as above; type: cell-based, mouse; design: key: +: positive or negative cooperation with BMP2; −: positive or negative cooperation with BMP2
# Protocol: as §1, §2
molecule,measurement,setting,value
B1,Validation in vitro (coop over BMP2) C3H10T1/2,C3H10T1/2 cells,−
same,Validation in vitro (coop over BMP2) C2C12,C2C12 cells,−
